Reference: publication PMC10903085 (Neurotherapeutics, 2023)

Molecular target: His-Tau-Strep (human 4R2N Tau) (human, UniProt P10636-8 1-441)
Test: AlphaScreen or HTRF

- binding result: binds
B1: GST-Fyn-SH3-Strep (human Fyn-SH3 domain) (domain or fragment)
chain: not shown
